Assay results as given in article PMC8408140 (2021).

B1: TFEB-EGFP [not stated] / Flag-TNKS1 [not stated] (parent complex)
chain 1: MASRIGLRMQLMREQAQQEEQRERMQQQAVMHYMQQQQQQQQQQLGGPPTPAINTPVHFQSPPPVPGEVLKVQSYLENPTSYHLQQSQHQKVREYLSETYGNKFAAHISPAQGSPKPPPAASPGVRAGHVLSSSAGNSAPNSPMAMLHIGSNPERELDDVIDNIMRLDDVLGYINPEMQMPNTLPLSSSHLNVYSSDPQVTASLVGVTSSSCPADLTQKRELTDAESRALAKERQKKDNHNLIERRRRFNINDRIKELGMLIPKANDLDVRWNKGTILKASVDYIRRMQKDLQKSRELENHSRRLEMTNKQLWLRIQELEMQARVHGLPTTSPSGMNMAELAQQVVKQELPSEEGPGEALMLGAEVPDPEPLPALPPQAPLPLPTQPPSPFHHLDFSHSLSFGGREDEGPPGYPEPLAPGHGSPFPSLSKKDLDLMLLDDSLLPLASDPLLSTMSPEASKASSRRSSFSMEEGDVL
chain 2: MAASRRSQHHHHHHQQQLQPAPGASAPPPPPPPPLSPGLAPGTTPASPTASGLAPFASPRHGLALPEGDGSRDPPDRPRSPDPVDGTSCCSTTSTICTVAAAPVVPAVSTSSAAGVAPNPAGSGSNNSPSSSSSPTSSSSSSPSSPGSSLAESPEAAGVSSTAPLGPGAAGPGTGVPAVSGALRELLEACRNGDVSRVKRLVDAANVNAKDMAGRKSSPLHFAAGFGRKDVVEHLLQMGANVHARDDGGLIPLHNACSFGHAEVVSLLLCQGADPNARDNWNYTPLHEAAIKGKIDVCIVLLQHGADPNIRNTDGKSALDLADPSAKAVLTGEYKKDELLEAARSGNEEKLMALLTPLNVNCHASDGRKSTPLHLAAGYNRVRIVQLLLQHGADVHAKDKGGLVPLHNACSYGHYEVTELLLKHGACVNAMDLWQFTPLHEAASKNRVEVCSLLLSHGADPTLVNCHGKSAVDMAPTPELRERLTYEFKGHSLLQAAREADLAKVKKTLALEIINFKQPQSHETALHCAVASLHPKRKQVTELLLRKGANVNEKNKDFMTPLHVAAERAHNDVMEVLHKHGAKMNALDTLGQTALHRAALAGHLQTCRLLLSYGSDPSIISLQGFTAAQMGNEAVQQILSESTPIRTSDVDYRLLEASKAGDLETVKQLCSSQNVNCRDLEGRHSTPLHFAAGYNRVSVVEYLLHHGADVHAKDKGGLVPLHNACSYGHYEVAELLVRHGASVNVADLWKFTPLHEAAAKGKYEICKLLLKHGADPTKKNRDGNTPLDLVKEGDTDIQDLLRGDAALLDAAKKGCLARVQKLCTPENINCRDTQGRNSTPLHLAAGYNNLEVAEYLLEHGADVNAQDKGGLIPLHNAASYGHVDIAALLIKYNTCVNATDKWAFTPLHEAAQKGRTQLCALLLAHGADPTMKNQEGQTPLDLATADDIRALLIDAMPPEALPTCFKPQATVVSASLISPASTPSCLSAASSIDNLTGPLAELAVGGASNAGDGAAGTERKEGEVAGLDMNISQFLKSLGLEHLRDIFETEQITLDVLADMGHEELKEIGINAYGHRHKLIKGVERLLGGQQGTNPYLTFHCVNQGTILLDLAPEDKEYQSVEEEMQSTIREHRDGGNAGGIFNRYNVIRIQKVVNKKLRERFCHRQKEVSEENHNHHNERMLFHGSPFINAIIHKGFDERHAYIGGMFGAGIYFAENSSKSNQYVYGIGGGTGCPTHKDRSCYICHRQMLFCRVTLGKSFLQFSTMKMAHAPPGHHSVIGRPSVNGLAYAEYVIYRGEQAYPEYLITYQIMKPEAPSQTATAAEQKT

Variants of: B1
Test: co-immunoprecipitation (anti-GFP IP, immunoblot quantification); HEK293T cells; three independent immunoblots; parent: 1; read off a plot

Row | ratio to parent | Variant
1 | ~0.4 | chain 1 MASRIGLRMQLMREQAQQEEQRERMQQQAVMHYMQQQQQQQQQQLGGPPTPAINTPVHFQSPPPDPVAVLKVQSYLENPTSYHLQQSQHQKVREYLSETYGNKFAAHISPAQGSPKPPPAASPGVRAGHVLSSSAGNSAPNSPMAMLHIGSNPERELDDVIDNIMRLDDVLGYINPEMQMPNTLPLSSSHLNVYSSDPQVTASLVGVTSSSCPADLTQKRELTDAESRALAKERQKKDNHNLIERRRRFNINDRIKELGMLIPKANDLDVRWNKGTILKASVDYIRRMQKDLQKSRELENHSRRLEMTNKQLWLRIQELEMQARVHGLPTTSPSGMNMAELAQQVVKQELPSEEGPGEALMLGAEVPDPEPLPALPPQAPLPLPTQPPSPFHHLDFSHSLSFGGREDEGPPGYPEPLAPGHGSPFPSLSKKDLDLMLLDDSLLPLASDPLLSTMSPEASKASSRRSSFSMEEGDVL [chain 1 V65D, chain 1 G67V, chain 1 E68A]
